Reference: publication PMC12103069 (2025)

Target: UBE2L3 wild type (Mus musculus)
Assay: MST

UBE2L3 wild type (Mus musculus), sequence (B2R4A7 whole entry): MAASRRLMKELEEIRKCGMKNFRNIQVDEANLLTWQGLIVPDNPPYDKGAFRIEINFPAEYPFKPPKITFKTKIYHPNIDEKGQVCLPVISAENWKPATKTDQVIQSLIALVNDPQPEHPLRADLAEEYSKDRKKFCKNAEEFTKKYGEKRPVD

B1: GST-MuRF1RM (MuRF1 amino acids 1-115, RING and MFC domains) (domain or fragment)
chain: MDYKSGLIPDGNAMENLEKQLICPICLEMFTKPVVILPCQHNLCRKCANDIFQAANPYWTNRGGSVSMSGGRFRCPSCRHEVIMDRHGVYGLQRNLLVENIIDIYKQECSSRPLQ
modifications: red fluorescent dye NT-647, covalently, by amine coupling (in the fluorescence assay only)
With B1 the Kd was 150 nM.
